Square brackets hold non-standard residues; d marks the D form. Ends that are not written are not given here. Peptide text beside a SMILES is read from it. * marks the point of attachment. Geranylgeranyl = CC(C)=CCC/C(C)=C/CC/C(C)=C/CC/C(C)=C/C*; Biotin = O=C1N[C@H]2[C@H](CS[C@H]2CCCCC(=O)*)N1; pS = N[C@@H](COP(=O)(O)O)C(=O)O; Ahx = NCCCCCC(=O)O

Experiment [1] deals with biotinylated Rnd3 C-terminal peptide, phosphorylated on S240 (+P−F) (human). Description: BLI; Octet RED96; biotinylated peptides immobilised on streptavidin biosensors; dilution series of 14-3-3ζ; 25 mM Tris, 150 mM NaCl, 0.1% Tween-20; KD of +P-F by steady-state analysis.
Experiment [2] concerns the target biotinylated Rnd3 C-terminal peptide, phosphorylated on S240 and farnesylated on C241 (+P+F) (human). The description is as above.
Experiment [3] has as its target biotinylated Rnd3 C-terminal peptide, phosphorylated on S240 and geranylated (+P+G) (human). Described as above.
Experiment [4] concerns the target biotinylated Rnd3 C-terminal peptide, phosphorylated on S240 and geranylgeranylated (+P+GG) (human). The experiment is described as above.
Experiment [5] concerns the target biotinylated Rnd3 C-terminal peptide, phosphorylated on S240 and isoprenylated (+P+Ipr) (human). The description is as above.
The subject of another experiment is pS210-Rnd3. Description: pS210-Rnd3 immunoblot in treated COS7 cells. The experiment is classed as cell-based. The note with it: 2 hr, PMA 100 nM, BIM1 1 μM. How it is done:
COS7 cells grown in Dulbecco’s modified Eagle’s medium (DMEM) containing 10% bovine fetal calf serum and penicillin/streptomycin (Invitrogen) were electroporated with 5 μg DNA at 250 V and 960 μF using 0.4 cm Gene Pulser Cuvettes (Bio-Rad) in 250 μl of electroporation buffer (120 mM KCl, 10 mM K2PO4/KH2PO4 [pH 7.6], 25 mM HEPES [pH 7.6], 2 mM MgCl2, and 0.5% Ficoll). Cells were analyzed 24 hr after transfection. NIH 3T3 cells grown in DMEM containing 10% donor bovine serum and penicillin/streptomycin were transfected using FuGENE 6 (Roche) according to the manufacturer’s instructions. Where indicated, cells were treated for 20 min with 100 nM calyculin A (Alexis); for 2 hr with 100 nM staurosporine (Calbiochem), 20 μM H-1152 (Calbiochem), 1 μM bisindolylmaleimide I (BIM1, Calbiochem), or 100 nM phorbol-12-myristate-13-acetate (PMA, Cell Signaling Technology); and for 16 hr with 10 μM L-744,832 farnesyltransferase inhibitor (FTI, Calbiochem).
Rabbit polyclonal antisera were raised against phosphorylated Rnd3-S210 peptide (KNVKRNKpSQRA) by Eurogentec, Seraing, Belgium. Nonspecific antibodies were removed through a nonphosphopeptide (KNVKRNKSQRA) column followed by a specific phosphoenrichment of the antibodies by affinity purification using a phosphopeptide column. […]
On the technique in general: Immunoblotting shows a protein as a band on a membrane.

The target in experiment [6] is T1, 14-3-3ζ (Homo sapiens, UniProt P63104).
T1 construct: hexa-His; made in house; host or cells: E. coli BL21(DE3) Star
T1 sequence (P63104 1-245): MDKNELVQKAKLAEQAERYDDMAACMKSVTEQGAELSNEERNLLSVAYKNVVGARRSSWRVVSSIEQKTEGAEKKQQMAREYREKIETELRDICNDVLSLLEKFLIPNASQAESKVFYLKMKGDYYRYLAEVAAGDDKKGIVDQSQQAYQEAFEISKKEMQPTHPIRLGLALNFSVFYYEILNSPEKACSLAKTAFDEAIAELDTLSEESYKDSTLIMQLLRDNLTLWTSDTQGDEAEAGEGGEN
Description: Isothermal titration calorimetry of Rnd3 C-terminal peptides with 14-3-3ζ. The experiment is classed as binding. The following applies: ITC. As for the experimental part: ITC measurements were carried out using a VP-ITC200 instrument (GE Healthcare). The 14-3-3ζ domain (see Extended Experimental Procedures) was used at 50–60 μM in ITC buffer (50 mM Tris [pH 7.5]), 100 mM NaCl, 1 mM TCEP). Rnd3 C-terminal peptides were solubilized in ITC buffer and used at 500–600 μM. Titrations were carried out at 25°C in triplicate. Each titration was fitted to a simple one-site binding model using the Origin software provided with the instrument. Titrations with nonbinding peptides were carried out at 15°C and 25°C.
GST-14-3-3β protein was expressed as previously reported ([Yaffe et al., 1997]). A hexa-His-tagged version of 14-3-3ζ was expressed and purified essentially as previously reported ([Kostelecky et al., 2009]). In brief, the E. coli strain BL21(DE3) Star (Invitrogen) was transformed with the expression plasmid that was maintained by 34 μg/ml chloramphenicol. E. coli cells were grown to OD600nm of 0.7-0.8 in TB medium at 37°C and protein expression induced by 1 mM IPTG for 5 hr at 30°C. Pelleted cells were suspended in buffer A (25 mM Tris [pH 7.5], 100 mM NaCl, 1 mM EDTA, and 1 mM DTT) and disrupted by sonication. Insoluble material was cleared by high-speed centrifugation and the cleared lysate applied to a 5 ml HisTrap column using an AKTA system (GE Healthcare). The 14-3-3ζ protein was eluted with a linear gradient (0–500 mM) of Imidazole in buffer A. Finally, the protein was subjected to size-exclusion chromatography using a High-Load S200 pg column. As previously described, 14-3-3ζ eluted as a dimer with a molecular weight of ∼60 kDa. The final yield of 14-3-3ζ was 30–40 mg per liter of TB medium.
Background: In ITC the heat of successive injections is recorded.

Experiment [7] addresses T1, 14-3-3ζ. Description: Biolayer interferometry (Octet RED96), immobilised biotinylated peptides, 14-3-3ζ in solution. The experiment is classed as binding. The following applies: determined by steady-state analysis, typical experiment (n ≥ 3). As for the experimental part:
Biolayer interferometry was carried out using an Octet RED96 instrument (ForteBio). Biotinylated peptides were immobilized on streptavadin-coated biosensors (ForteBio) at a concentration of 1 μg/ml in BI buffer (25 mM Tris, 150 mM NaCl, 0.1% Tween-20), for 300 s. The immobilization typically reached a response level of 2 nm. Association and dissociation curves were obtained through addition of a dilution series of 14-3-3ζ ([…]) for 300 s followed by dissociation in BI buffer for 300 s using the Octet acquisition software. The binding data were fitted using the Octet analysis software.
On the technique in general: BLI is a label-free optical method that tracks binding on a fibre tip over time.

Experiment [8] concerns GST-14-3-3β / Rnd3 interaction. Description: Peptide competition in GST-14-3-3β pull-down of FLAG-Rnd3 from COS7 lysates. It is filed as binding. The following applies: peptide 10 μg/ml preincubated 15 min at 4°C with GST-14-3-3β; immunoblot. How it is done: Recombinant GST-14-3-3β was expressed and purified from E. coli (Extended Experimental Procedures). FLAG-Rnd3-transfected COS7 cells were lysed in LB buffer. After removal of insoluble material, precleared cell lysates were incubated at 4°C for 2 hr with the recombinant GST or GST-14-3-3β protein (5 μg) on glutathione beads (Amersham Biosciences). Beads were washed with LB buffer before eluting the proteins in LSB. The proteins were resolved by SDS-PAGE and analyzed by immunoblotting.
For peptide competition experiments (Table S3; Extended Experimental Procedures), peptides (10 μg/ml) were preincubated for 15 min at 4°C with the GST-14-3-3β prior to the addition of precleared cell lysates.

The target of experiment [9] is T2, hexa-His-tagged 14-3-3ζ (UniProt P63104 1-245).
T2 construct: 14-3-3ζ, expressed essentially as in Kostelecky et al., 2009; eluted as a dimer of ~60 kDa; also called recombinant 14-3-3ζ; 14-3-3ζ domain; source: E. coli BL21(DE3) Star, purified (HisTrap, size-exclusion chromatography)
T2 sequence: T1 sequence (P63104 1-245)
Description: BLI; Octet RED96; biotinylated peptides immobilised on streptavidin biosensors; dilution series of 14-3-3ζ; 25 mM Tris, 150 mM NaCl, 0.1% Tween-20; KD of +P-F by steady-state analysis. The note with it: both partners purified.

Experiment [10] deals with T3, hexa-His-tagged 14-3-3ζ (UniProt P63104 1-245).
T3 construct: 14-3-3 protein zeta; expressed and purified essentially as in Kostelecky et al., 2009; eluted as a dimer of ~60 kDa; the ITC methods call it 'the 14-3-3ζ domain'; source: E. coli BL21(DE3) Star, purified (HisTrap, size-exclusion chromatography)
T3 sequence: T1 sequence (P63104 1-245)
As to the kind of experiment: BLI; Octet RED96; biotinylated peptides immobilised on streptavidin-coated biosensors (1 μg/ml, 300 s); dilution series of 14-3-3ζ for 300 s, dissociation 300 s; BI buffer 25 mM Tris, 150 mM NaCl, 0.1% Tween-20; data of a typical experiment (n ≥ 3). The following applies: both partners purified.

In the case of “hexa-His-tagged 14-3-3ζ (from UniProt P63104 1-245) (natural protein)”, the Kd (usually the constant that tells how readily two partners part at equilibrium) in experiment [1] came to 1300 nM; in experiment [2], 32.4 nM; in [3] it was 56.5 nM; in [4], 23.2 nM; in [5] it was 556 nM. The off-rate (koff) (as a rule, the first-order rate constant of dissociation) stood at 0.028 s⁻¹ in [2], 0.032 s⁻¹ in experiment [3], 0.021 s⁻¹ in [4] and 0.13 s⁻¹ in experiment [5]. The association rate constant (kon) (commonly a measure of how fast the partners come together) in experiment [2] was determined as 860000 M⁻¹ s⁻¹; in experiment [3], 570000 M⁻¹ s⁻¹; in experiment [4] it was 890000 M⁻¹ s⁻¹; in experiment [5], 240000 M⁻¹ s⁻¹.
Regarding `CCCCCCCCCCCCCC(=O)O[C@@H]1[C@@H](C)[C@@]2(O)[C@@H](C=C(CO)C[C@]3(O)C(=O)C(C)=C[C@@H]23)[C@@H]2C(C)(C)[C@]12OC(C)=O` [PMA, phorbol-12-myristate-13-acetate], in the experiment with pS210-Rnd3, the “effect on pS210-Rnd3” value is recorded as “increase”.
Consider `CN(C)CCCn1cc(C2=C(c3c[nH]c4ccccc34)C(=O)NC2=O)c2ccccc21` [BIM1, bisindolylmaleimide I], for which the “effect on pS210-Rnd3” value with pS210-Rnd3 is “reduced”.
Consider `CC(C)C[C@H](NC(=O)[C@@H](N)CC(=O)O)C(=O)N[C@@H](CCCNC(=N)N)C(=O)N[C@@H](CCCCN)C(=O)N[C@@H](CC(=O)O)C(=O)N[C@@H](CCCCN)C(=O)N[C@@H](C)C(=O)N[C@@H](CCCCN)C(=O)N[C@@H](COP(=O)(O)O)C(=O)N[C@@H](CS)C(=O)O` [+P-F] (H-DLRKDKAK[pS]C-OH), for which, on 14-3-3ζ [6] (25°C, 50 mM Tris pH 7.5, 100 mM NaCl, 1 mM TCEP, one-site model, mean ± SD, n = 3), the Kd worked out at 1060 ± 40 nM. Also, on 14-3-3ζ [6] (25°C, 14-3-3ζ 50–60 μM, peptide 500–600 μM, 50 mM Tris pH 7.5, 100 mM NaCl, 1 mM TCEP, one-site model, mean ± SD, n = 3), the “Stoichiometry (N)” value was 0.89 ± 0.017. For the same molecule, at 14-3-3ζ [6] (25°C, mean ± SD, n = 3), the TΔS is 2.469 ± 0.231 kcal/mol, the ΔG was -8.152 ± 0.027 kcal/mol and the ΔH is -5.683 ± 0.204 kcal/mol. For the same molecule, the “N (printed in Figure 5C)” value on 14-3-3ζ [6] (fitted curve of Figure 5C) stood at 0.89. Further, the Kd on 14-3-3ζ [7] was 1300 nM. Further, the “inhibition of the interaction between GST-14-3-3β and Rnd3” value in experiment [8] is “only slightly inhibited”.

B1: biotinylated Rap1A C-terminal peptide, phosphorylated and geranylgeranylated (peptide)
peptide: {Biotin-Ahx}-EKKKPKKK[pS]C(Geranylgeranyl)
notes: C terminus of Rap1A up to the prenylated C181; also called Rap1A peptide; source: synthetic peptide
Regarding B1, the dissociation constant (Kd) with hexa-His-tagged 14-3-3ζ [9] was ~25 nM.

B2: Rap1A C-terminal peptide, phosphorylated, not geranylgeranylated (biotinylated) (peptide)
peptide: EKKKPKKK[pS]C
modifications: not fully specified (N-terminus); also: biotinylated
notes: Rap1A C-terminal peptide as Dm2 but without the geranylgeranyl modification; also called Rap1A+P-GG; nonmodified phosphopeptide; source: synthetic peptide
As to B2, the Kd in the experiment with hexa-His-tagged 14-3-3ζ [10] was > 1000 nM.

The record behind these values is paper PMC3690454, “14-3-3 Proteins Interact with a Hybrid Prenyl-Phosphorylation Motif to Inhibit G Proteins” (Cell, 2013).
